Laboratory results taken from patent publication US20170275344A1, “POLYPEPTIDES AND USES THEREOF AS A DRUG FOR TREATMENT OF AUTOIMMUNE DISORDERS” (Compugen Ltd., priority 2014, published 2017).

What was measured:
SJL/J mice [1] = test: Adoptive transfer R-EAE, clinical score; type: in vivo, mouse
Procedure: Female SJL/J mice were primed with 50 ug of PLP139-151/CFA according to the standard laboratory protocol on day 0. On day 8 post disease induction, the inguinal lymph nodes were collected and the total lymph node cells were re-activated in culture in the presence of PLP139-151 for 3 days. At the end of culture, cells were collected and transferred into naive recipient SJL/J mice.
a. Mice were shaved (about a lin.xlin, square on the back between the hind flanks) and injected with CFA/PLP139-151 emulsion at 100 μl per mouse s.c., divided between three spots on the back and flanks. Peptide and final dose given per mouse: 50 μg of PLP139-151 peptide on day 0.
b. On day 8 post priming with PLP139-151/CFA, the draining inguinal lymph nodes were collected, and single cell suspensions were prepared. Total lymph node cells were cultured at a density of 8×10^6 cells per ml in the HL-1 medium plus PLP139-151 peptide (20 μg/ml) in T75 flasks.
c. After 3 days of culture, the PLP139-151 reactivated cells were collected and counted using an hemacytometer. The number of total viable cells and the number of blast cells was determined. The percentage of blast cells expected following this protocol is 20-30% of the total viable cells.
d. Unless otherwise specified, 3×10^6 cells were transferred to each recipient mouse by intravenous injection.
f. Mice were scored on the indicated days, on a 0-5 disease score scale per standard laboratory protocol: 0, no abnormality; 1, limp tail; 2, limp tail and hind limb weakness; 3, hind limb paralysis; 4, hind limb paralysis and forelimb weakness; and 5, moribund.

SJL/J mice [2] = test: BBB breakdown and inflammation by fluorescence molecular tomography in adoptive transfer R-EAE; type: in vivo, mouse; settings: Day +30, treatment from onset of remission
Procedure: […] At the time of imaging mice were anesthetized by administration of sodium pentobarbital (50 mg/kg) and then imaged using the FMT 2500 fluorescence molecular tomography in vivo imaging system. The data is presented as pmol of CathepsinB or AngioSense present within the brain (B) or spinal cord (C).
Commercially available near infrared (NIR) imaging agents were used to perform tomographic imaging (PerkinElmer Inc., Boston, Mass.). […] For the in vivo imaging, mice were injected intravenously with 4 nmol of NIR fluorescent agent 24 hrs prior to imaging, and imaged following the last treatment with Control Ig or C1ORF32 ECD-Fc (SEQ ID NO: 42) (Day +30 post-PLP139-151 blast cell transfer). At the time of imaging, mice were anesthetized by administration of sodium pentobarbital (50 mg/kg) and then imaged using the FMT 2500 fluorescence molecular tomography in vivo imaging system (PerkinElmer Inc., Boston, Mass.). […] Appropriate optical filters allowed the collection of both fluorescence and excitation datasets, and the multiple source-detector fluorescence projections were normalized to the paired collection of laser excitation data. […] The total amount of fluorescence (in pmoles) in different organ sites was automatically calculated relative to internal standards generated with known concentrations of appropriate FR/NIR dyes. […]

B1: C1ORF32 ECD-Fc (SEQ ID NO:42): fusion protein of human C1ORF32 ECD fused to mouse immunoglobulin Fc (human-mouse fusion protein) (protein)
chain: LQVTVPDKKKVAMLFQPTVLRCHFSTSSHQPAVVQWKFKSYCQDRMGESLGMSSTRAQSLSKRNLEWDPYLDCLDSRRTVRVVASKQGSTVTLGDFYRGREITIVHDADLQIGKLMWGDSGLYYCIITTPDDLEGKNEDSVELLVLGRTGLLADLLPSFAVEIMGSENLYFQGSGEPRGPTIKPCPPCKCPAPNLLGGPSVFIFPPKIKDVLMISLSPIVTCVVVDVSEDDPDVQISWFVNNVEVHTAQTQTHREDYNSTLRVVSALPIQHQDWMSGKEFKCKVNNKDLPAPIERTISKPKGSVRAPQVYVLPPPEEEMTKKQVTLTCMVTDFMPEDIYVEWTNNGKTELNYKNTEPVLDSDGSYFMYSKLRVEKKNWVERNSYSCSVVHEGLHNHHTTKSFSRTPGK
modifications: Fusion protein human C1ORF32-ECD fused to mouse IgG2a Fc
clinical signs of the disease (mean clinical score) (SJL/J mice [1]; 100 ug/mouse i.p. 3x/wk for 2 wks from onset of disease remission, two studies): robust inhibition of clinical signs of the disease | disease induction (SJL/J mice [1]; study Cgen data, treatment from the time of cell transfer, 100 ug/dose i.p. 3x/wk for 2 wks): complete abolishment of disease induction | disease development (SJL/J mice [1]; study MYC48 FACS, treatment from the time of cell transfer, 100 ug/dose i.p. 3x/wk for 2 wks): abolished disease development | monocyte/macrophage activity in the brain and spinal cord (lysosomal CathepsinB activity) (SJL/J mice [2]): reduced lysosomal CathepsinB activity; however this effect did not reach statistical significance | vascular leakage in the brain and spinal cord (AngioSense720 levels) (SJL/J mice [2]; significant): decreased vascular leakage
